Measurements reported in publication PMC3584034.

How the values were obtained:
[1] = biological target: T1, EpCAM (human (breast and colon cancer cell lines)) (UniProt P16422); experiment: cell binding (method not given); conditions: 2'-fluoropyrimidine (Methods: 2'-fluoropyrimidine or 2'-O-methyl-pyrimidine bases); 3' inverted dT; FFPE staining: PBS, 5 mM MgCl2, 0.1 mg/mL tRNA, 1 mg/mL BSA, 10% dextran sulphate, 500 ug/mL heparin, 100 nM aptamer, 15 min, 37 C; flow cytometry: 100 nM …
T1 sequence: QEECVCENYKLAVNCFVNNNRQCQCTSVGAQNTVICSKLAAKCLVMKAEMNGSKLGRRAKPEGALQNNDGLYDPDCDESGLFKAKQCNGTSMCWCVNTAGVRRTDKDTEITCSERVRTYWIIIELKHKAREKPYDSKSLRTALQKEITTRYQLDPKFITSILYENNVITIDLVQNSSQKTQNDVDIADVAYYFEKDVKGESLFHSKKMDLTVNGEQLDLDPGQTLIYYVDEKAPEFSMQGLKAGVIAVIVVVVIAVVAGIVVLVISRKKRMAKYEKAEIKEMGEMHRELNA

[2] = biological target: T1, EpCAM (human (breast and colon cancer cell lines)); experiment: cell binding (cited); conditions: 2'-fluoropyrimidine (Methods: 2'-fluoropyrimidine or 2'-O-methyl-pyrimidine bases); 3' inverted dT; FFPE staining: PBS, 5 mM MgCl2, 0.1 mg/mL tRNA, 1 mg/mL BSA, 10% dextran sulphate, 500 ug/mL heparin, 100 nM aptamer, 15 min, 37 C; flow cytometry: 100 nM …; cited from earlier work

Sequence	Kd [1] [nM]	Kd [2] [nM]
ACGUAUCCCUUUUCGCGUA [Ep23]	37	
GCGACUGGUUACCCGGUCG [DT3]		158
